# Substitutions are numbered along the chain they refer to.
# T1: human TREM2 (triggering receptor expressed on myeloid cells 2) (human) (UniProt Q9NZC2)
# T1 sequence (looked up): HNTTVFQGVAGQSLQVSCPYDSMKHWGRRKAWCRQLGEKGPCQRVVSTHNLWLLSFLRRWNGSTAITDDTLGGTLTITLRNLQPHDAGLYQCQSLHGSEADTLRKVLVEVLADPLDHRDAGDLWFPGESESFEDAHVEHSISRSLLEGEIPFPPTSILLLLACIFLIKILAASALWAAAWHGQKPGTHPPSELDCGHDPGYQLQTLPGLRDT
# B1: 6E7 antibody affinity modulation variant V34 (antibody, V domains shown)
# VH: EVQLVQSGAEVKKPGESLKISCKGSGYSFTSYWIAWVRQMPGKGLEWMGIIYPGDSDTRYSPSFQGQVTISADKSISTAYLQWSSLKASDTAMYFCARQRTFYYDSSDYFDYWGQGTLVTVSS
# VL: DIQMTQSPSSVSASVGDRVTITCRASQGISSWLAWYQQKPGKAPKLLIYAASSLQDGVPSRFSGSGSGTDFTLTISSLQPEDFATYFCQQADSFPRTFGQGTKLEIK
# B2: 6E7 antibody affinity modulation variant V78 (antibody, V domains shown)
# VH: B1 VH with S28R
# VL: B1 VL with D56N
# B3: 6E7 antibody affinity modulation variant V68 (antibody, V domains shown)
# VH: B1 VH with Y103R
# VL: B1 VL with D56N
# B4: 6E7 antibody affinity modulation variant V58 (antibody, V domains shown)
# VH: B1 VH
# VL: B1 VL with A50K, D56N
# B5: 6E7 antibody affinity modulation variant V81 (antibody, V domains shown)
# VH: B1 VH
# VL: B1 VL with W32L, D56N
# B6: 6E7 antibody affinity modulation variant V6 (antibody, V domains shown)
# VH: B1 VH with Y32M
# VL: B1 VL with D56N
# B7: 6E7 antibody affinity modulation variant V82 (antibody, V domains shown)
# VH: B1 VH
# VL: B1 VL with A51G, D56N
# B8: 6E7 antibody affinity modulation variant V69 (antibody, V domains shown)
# VH: B1 VH
# VL: B1 VL with W32Y, D56N
# B9: 6E7 antibody affinity modulation variant V59 (antibody, V domains shown)
# VH: B1 VH
# VL: B1 VL with D56N, Q89M
# B10: 6E7 antibody affinity modulation variant V55 (antibody, V domains shown)
# VH: B1 VH with R59I, F64H
# VL: B1 VL with D56N
# B11: 6E7 antibody affinity modulation variant V47 (antibody, V domains shown)
# VH: B1 VH
# VL: B1 VL with D56N, R96M
# B12: 6E7 antibody affinity modulation variant V54 (antibody, V domains shown)
# VH: B1 VH with Y32Q
# VL: B1 VL with D56N
# B13: 6E7 antibody affinity modulation variant V94 (antibody, V domains shown)
# VH: B1 VH
# VL: B1 VL with S52A, D56N
# B14: 6E7 antibody affinity modulation variant V35 (antibody, V domains shown)
# VH: B1 VH
# VL: B1 VL with D56N, D92Y
# B15: 6E7 antibody affinity modulation variant V93 (antibody, V domains shown)
# VH: B1 VH
# VL: B1 VL with S31G, D56N
# B16: 6E7 antibody affinity modulation variant V46 (antibody, V domains shown)
# VH: B1 VH
# VL: B1 VL with S53T, D56N
# B17: 6E7 antibody affinity modulation variant V70 (antibody, V domains shown)
# VH: B1 VH
# VL: B1 VL with S52G, D56N
# B18: 6E7 antibody affinity modulation variant V83 (antibody, V domains shown)
# VH: B1 VH
# VL: B1 VL with D56N, D92V
# B19: 6E7 antibody affinity modulation variant V57 (antibody, V domains shown)
# VH: B1 VH
# VL: B1 VL with R24A, D56N
# B20: 6E7 antibody affinity modulation variant V45 (antibody, V domains shown)
# VH: B1 VH
# VL: B1 VL with W32F, D56N
# B21: 6E7 antibody affinity modulation variant V8 (antibody, V domains shown)
# VH: B1 VH with R59K
# VL: B1 VL with D56N
# B22: 6E7 antibody affinity modulation variant V66 (antibody, V domains shown)
# VH: B1 VH with Y27T
# VL: B1 VL with D56N
# B23: 6E7 antibody affinity modulation variant V43 (antibody, V domains shown)
# VH: B1 VH with D57G
# VL: B1 VL with D56N
# B24: 6E7 antibody affinity modulation variant V79 (antibody, V domains shown)
# VH: B1 VH with R59N
# VL: B1 VL with D56N
# B25: 6E7 antibody affinity modulation variant V67 (antibody, V domains shown)
# VH: B1 VH with I50M
# VL: B1 VL with D56N
# B26: 6E7 antibody affinity modulation variant V44 (antibody, V domains shown)
# VH: B1 VH with G54S
# VL: B1 VL with D56N
# B27: 6E7 antibody affinity modulation variant V42 (antibody, V domains shown)
# VH: B1 VH with Y32A
# VL: B1 VL with D56N
# B28: 6E7 antibody affinity modulation variant V92 (antibody, V domains shown)
# VH: B1 VH with Y103H
# VL: B1 VL with D56N
# B29: 6E7 antibody affinity modulation variant V9 (antibody, V domains shown)
# VH: B1 VH with T101G
# VL: B1 VL with D56N
# B30: 6E7 antibody affinity modulation variant V10 (antibody, V domains shown)
# VH: B1 VH
# VL: B1 VL with A50S, D56N
# B31: 6E7 antibody affinity modulation variant V91 (antibody, V domains shown)
# VH: B1 VH with G54D
# VL: B1 VL with D56N
# B32: 6E7 antibody affinity modulation variant V7 (antibody, V domains shown)
# VH: B1 VH with Y32E
# VL: B1 VL with D56N
# B33: 6E7 antibody affinity modulation variant V56 (antibody, V domains shown)
# VH: B1 VH with S61Q
# VL: B1 VL with D56N
# B34: 6E7 antibody affinity modulation variant V90 (antibody, V domains shown)
# VH: B1 VH with Y32E
# VL: B1 VL with S31R, D56N
# B35: 6E7 antibody affinity modulation variant V80 (antibody, V domains shown)
# VH: B1 VH with T101N
# VL: B1 VL with D56N
# B36: 6E7 antibody affinity modulation variant V71 (antibody, V domains shown)
# VH: B1 VH
# VL: B1 VL with D56N, F94E
# Target: T1, human TREM2 (triggering receptor expressed on myeloid cells 2) (human)
# Test: 1st screen, 110 nM Ab
row,Binding Signal (fold over 6E7 parental antibody),Binder
1,0.34 fold,B1
2,0.86 fold,B2
3,0.44 fold,B3
4,0.28 fold,B4
5,0.17 fold,B5
6,0.2 fold,B6
7,0.3 fold,B7
8,0.41 fold,B8
9,0.19 fold,B9
10,0.24 fold,B10
11,0.42 fold,B11
12,0.55 fold,B12
13,0.31 fold,B13
14,0.21 fold,B14
15,0.35 fold,B15
16,0.83 fold,B16
17,0.79 fold,B17
18,0.2 fold,B18

row,Binding Signal (fold over 6E7 parental antibody),Binder
1,0.84 fold,B19
2,0.43 fold,B20
3,0.28 fold,B21
4,0.25 fold,B22
5,0.2 fold,B23
6,0.7 fold,B24
7,0.8 fold,B25
8,0.65 fold,B26
9,0.45 fold,B27
10,0.22 fold,B28
11,0.67 fold,B29
12,0.76 fold,B30
13,0.25 fold,B31
14,0.11 fold,B32
15,0.23 fold,B33
16,0.33 fold,B34
17,0.59 fold,B35
18,0.37 fold,B36

# Target: T1, human TREM2 (triggering receptor expressed on myeloid cells 2) (human)
# Test: 2nd screen, 100 nM Ab
row,Binding Signal (fold over 6E7 parental antibody),Binder
1,1.02 fold,B1
2,1.11 fold,B2
3,0.43 fold,B3
4,0.68 fold,B4
5,0.23 fold,B5
6,0.56 fold,B6
7,0.79 fold,B7
8,0.4 fold,B8
9,0.6 fold,B9
10,0.66 fold,B10
11,0.47 fold,B11
12,0.54 fold,B12
13,0.87 fold,B13
14,0.29 fold,B14
15,1.05 fold,B15
16,0.96 fold,B16
17,0.84 fold,B17
18,0.29 fold,B18

row,Binding Signal (fold over 6E7 parental antibody),Binder
1,0.85 fold,B19
2,0.53 fold,B20
3,0.77 fold,B21
4,0.74 fold,B22
5,0.33 fold,B23
6,0.52 fold,B24
7,0.84 fold,B25
8,0.52 fold,B26
9,0.41 fold,B27
10,0.65 fold,B28
11,0.54 fold,B29
12,0.7 fold,B30
13,0.61 fold,B31
14,0.32 fold,B32
15,0.59 fold,B33
16,0.36 fold,B34
17,0.5 fold,B35
18,0.48 fold,B36

# From US20250019437A1
